Experimental findings from the Immune Epitope Database (IEDB) are described below.

For one assay, the target named is HLA-A*02:03. Description: IEDB peptide-MHC binding, purified MHC/competitive/radioactivity; filed as Kd, often an IC50 or EC50 that approximates it; ≥ and ≤ were set here for values at or beyond the usual limits of such assays.
The next assay addresses HLA-A*02:06. The description is as above.
For another assay, the target named is HLA-A*02:02. The assay is described as above.
Another assay deals with HLA-A*31:01. As to the kind of experiment: IEDB peptide-MHC binding, purified MHC/direct/fluorescence; filed as Kd, often an IC50 or EC50 that approximates it; ≥ and ≤ were set here for values at or beyond the usual limits of such assays. The following applies: source organism: Escherichia coli.
The next assay addresses HLA-A*03:01. Described as above. The conditions noted are these: source organism: Escherichia coli.
For the next assay, the target named is HLA-B*58:01. The assay is described as above. The following applies: source organism: Mammarenavirus lassaense.
A further assay has as its target HLA-A*02:01. Described as above.
The next assay addresses HLA-A*11:01. The description is as above. The following applies: source organism: SARS-CoV1.
In the next assay the target is HLA-A*69:01. Described as above.
[1] abbreviates: source organism: Vaccinia virus WR.
[2] abbreviates: source organism: SARS coronavirus Tor2.
The mark [3] stands for this setting: source organism: Escherichia coli O157:H7.

What is called Kd is the free concentration of one partner at which half of the binding sites on the other are occupied at equilibrium, for simple one-to-one binding. Turning to NVDVGCLLT, the Kd in the assay with HLA-A*02:03 (setting [1]) was 14000 nM; with HLA-A*02:06 (setting [1]), ≥ 64500 nM; with HLA-A*02:02 (setting [1]) it was 9850 nM.
For NVIGLIVIL, the Kd with HLA-A*02:03 (setting [1]) worked out at 2400 nM; in the assay with HLA-A*02:06 (setting [1]), 15.1 nM; with HLA-A*02:02 (setting [1]), 84.9 nM.
The corresponding values for NVQSLIKFI are 6020 nM, 10500 nM and 12900 nM.
As to NVSRVVECLT, the Kd with HLA-A*02:03 (setting [1]) was 14300 nM; with HLA-A*02:06 (setting [1]), ≥ 10000 nM; with HLA-A*02:02 (setting [1]), 4660 nM.
Regarding PLHIVCSKTV, the Kd in the assay with HLA-A*02:03 (setting [1]) is 5270 nM; with HLA-A*02:06 (setting [1]) it was ≥ 27000 nM; with HLA-A*02:02 (setting [1]) it was ≥ 34500 nM.
As to PMSRLFMDEI, the Kd stood at 726 nM with HLA-A*02:03 (setting [1]), 4370 nM with HLA-A*02:06 (setting [1]) and 1930 nM with HLA-A*02:02 (setting [1]).
In the case of PTIEDDKIVT, the Kd was ≥ 20600 nM with HLA-A*02:03 (setting [1]), ≥ 69800 nM with HLA-A*02:06 (setting [1]) and 13800 nM with HLA-A*02:02 (setting [1]).
Take QIMECSRML: the Kd stood at 1380 nM with HLA-A*02:03 (setting [1]), 948 nM in the assay with HLA-A*02:06 (setting [1]) and 620 nM with HLA-A*02:02 (setting [1]).
The corresponding values for QQNNSFIIST are 5040 nM, 5710 nM and 7000 nM.
Regarding RIITILQDIV, the figures for the Kd with HLA-A*02:03 (setting [1]), with HLA-A*02:06 (setting [1]) and in the assay with HLA-A*02:02 (setting [1]) were 209 nM, 94.8 nM and 595 nM, respectively.
Regarding RLRYNLCKYL, the Kd turned out to be 0.304 nM in the assay with HLA-A*02:03 (setting [1]), 15700 nM in the assay with HLA-A*02:06 (setting [1]) and 261 nM with HLA-A*02:02 (setting [1]).
Take RRNNRVFFR: the values for the Kd with HLA-A*31:01 and in the assay with HLA-A*03:01 were 17.7 nM and ≥ 20000 nM, respectively.
For the sequence SILNNPVDT, the dissociation constant (Kd) with HLA-A*02:03 (setting [1]) was ≥ 30600 nM; with HLA-A*02:06 (setting [1]), 14200 nM; with HLA-A*02:02 (setting [1]), ≥ 47100 nM.
The corresponding values for SIVCIVAAV are 2.82 nM, 3.54 nM and 3.91 nM.
In the case of SLSNLDFRL, the Kd came to 1760 nM in the assay with HLA-A*02:03 (setting [1]), 1380 nM in the assay with HLA-A*02:06 (setting [1]) and 1310 nM with HLA-A*02:02 (setting [1]).
Taken in the same sequence, the figures for SQAKKPEVRI were 2370 nM, 5860 nM and 10700 nM.
In the assay with HLA-B*58:01, STAIELGAW yielded a Kd of 13.3 nM.
On to SVDIETAIRA, for which the Kd with HLA-A*02:03 (setting [1]) worked out at 7620 nM; with HLA-A*02:06 (setting [1]), 1030 nM; in the assay with HLA-A*02:02 (setting [1]), 2830 nM.
For the sequence TIAHINTLI, the Kd amounted to 20 nM with HLA-A*02:03 (setting [1]), 571 nM with HLA-A*02:06 (setting [1]) and 21.4 nM in the assay with HLA-A*02:02 (setting [1]).
In the case of TINVNSLAL, the Kd with HLA-A*02:03 (setting [1]) amounted to 1540 nM; with HLA-A*02:06 (setting [1]) it was 2180 nM; with HLA-A*02:02 (setting [1]) it was 1980 nM.
In turn, TLKDAMLQL registered an equilibrium dissociation constant (Kd) with HLA-A*02:01 (source organism: Mammarenavirus lassaense) of 116 nM.
Consider TLLCVLAALV, for which the Kd is 77.4 nM in the assay with HLA-A*02:03 (setting [2]), 64.6 nM with HLA-A*02:06 (setting [2]) and 4.61 nM with HLA-A*02:02 (setting [2]).
Regarding TLVPQEHYV, the figures for the Kd with HLA-A*11:01, with HLA-A*02:01 (source organism: SARS-CoV1) and with HLA-A*69:01 (source organism: SARS-CoV1) were ≥ 43200 nM, 119 nM and 79.5 nM, respectively.
For TVGMSIVCIV, the Kd is 468 nM with HLA-A*02:03 (setting [1]), 200 nM with HLA-A*02:06 (setting [1]) and 528 nM with HLA-A*02:02 (setting [1]).
In the case of VIIMAINVFT, the figures for the Kd with HLA-A*02:03 (setting [1]), with HLA-A*02:06 (setting [1]) and in the assay with HLA-A*02:02 (setting [1]) were 820 nM, 674 nM and 320 nM, respectively.
Turning to VIPFDDIVRT, the Kd with HLA-A*02:03 (setting [1]) was ≥ 50300 nM; with HLA-A*02:06 (setting [1]), 18200 nM; with HLA-A*02:02 (setting [1]), ≥ 62700 nM.
Regarding VLFIHPLDA, the Kd in the assay with HLA-A*02:01 (setting [3]) is 64.9 nM; in the assay with HLA-A*69:01 (setting [3]) it was ≥ 20000 nM.
Take VMDTLNGIMM: the Kd in the assay with HLA-A*02:03 (setting [1]) was determined as 5160 nM; with HLA-A*02:06 (setting [1]), 403 nM; in the assay with HLA-A*02:02 (setting [1]) it was 7.64 nM.
Consider WLRAKRKPAM, for which the Kd with HLA-A*02:03 (setting [1]) was ≥ 20100 nM; with HLA-A*02:06 (setting [1]), 11900 nM; with HLA-A*02:02 (setting [1]), 4670 nM.
Take YIALCKVTV: the dissociation constant (Kd) in the assay with HLA-A*02:03 (setting [1]) came to 24 nM; in the assay with HLA-A*02:06 (setting [1]) it was 18.8 nM; in the assay with HLA-A*02:02 (setting [1]), 12.2 nM.
On to YTFAISYCRA, for which the Kd with HLA-A*02:03 (setting [1]) worked out at 37.6 nM; with HLA-A*02:06 (setting [1]), 37.4 nM; in the assay with HLA-A*02:02 (setting [1]) it was 325 nM.
With YVGDTSMMVI, the Kd with HLA-A*02:03 (setting [1]) was 220 nM; with HLA-A*02:06 (setting [1]) it was 324 nM; with HLA-A*02:02 (setting [1]), 408 nM.
On to YVSPTEMVDV, for which the Kd with HLA-A*02:03 (setting [1]) came out at 49.8 nM; with HLA-A*02:06 (setting [1]), 5.16 nM; in the assay with HLA-A*02:02 (setting [1]), 63.3 nM.
As to YVVIVENDNV, the Kd with HLA-A*02:03 (setting [1]) came to 11000 nM; in the assay with HLA-A*02:06 (setting [1]), 59.7 nM; in the assay with HLA-A*02:02 (setting [1]) it was 2330 nM.
